Data published in patent publication US20240000840A1.

Biological target: CD20 on CD20+ human Burkitt's lymphoma cell lines (Ramos, Raji) (human) (UniProt P11836)
Assay: cell-based or functional assay

Sequence of UniProt P11836 (P11836 whole entry): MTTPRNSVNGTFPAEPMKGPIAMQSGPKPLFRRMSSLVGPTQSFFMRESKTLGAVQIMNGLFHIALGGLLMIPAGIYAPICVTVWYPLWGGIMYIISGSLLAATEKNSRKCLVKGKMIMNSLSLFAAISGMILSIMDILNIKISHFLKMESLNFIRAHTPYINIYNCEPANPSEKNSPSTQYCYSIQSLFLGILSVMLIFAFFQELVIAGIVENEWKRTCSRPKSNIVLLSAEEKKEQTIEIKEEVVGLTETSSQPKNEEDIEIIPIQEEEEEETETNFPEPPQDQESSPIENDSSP

Substance “Rituximab (Mabthera or Rituxan) (antibody)” has a % of Raji alive, AB-101 + RTX, 24 h, batch 19AB101PN001 of 13.8%, a % of Raji alive, AB-101 + RTX, 24 h, batch 19AB101PN004 of 21.1% and a % of Raji alive, AB-101 + RTX, 24 h, batch 19AB101PN005 of 34.1%. The % of Raji alive, AB-101 + RTX, 24 h, batch 20AB101PG001 was 25.8%, the % of Raji alive, AB-101 + RTX, 24 h, batch 20AB101PG002 was 14.3% and the % of Raji alive, AB-101 + RTX, 24 h, batch 20AB101PN001 was 16.8%. For the same substance, the % of Raji alive, AB-101 + RTX, 24 h, batch 20AB101PN002 was 26.6%, the % of Raji alive, AB-101 + RTX, 24 h, batch 20AB101PN003 was 28.4% and the % of Raji alive, AB-101 + RTX, 24 h, batch 20AB101PN004 was 34.3%. For the same substance, the % of Raji alive, AB-101 + RTX, 48 h, batch 19AB101PN001 was 6.6%, the % of Raji alive, AB-101 + RTX, 48 h, batch 19AB101PN004 was 8.9% and the % of Raji alive, AB-101 + RTX, 48 h, batch 19AB101PN005 was 18.6%. The % of Raji alive, AB-101 + RTX, 48 h, batch 20AB101PG001 was 11.7%, the % of Raji alive, AB-101 + RTX, 48 h, batch 20AB101PG002 was 5.5% and the % of Raji alive, AB-101 + RTX, 48 h, batch 20AB101PN001 was 9.2%. For the same substance, the % of Raji alive, AB-101 + RTX, 48 h, batch 20AB101PN002 was 12.5%, the % of Raji alive, AB-101 + RTX, 48 h, batch 20AB101PN003 was 13.3% and the % of Raji alive, AB-101 + RTX, 48 h, batch 20AB101PN004 was 18.6%. For the same substance, the % of Raji alive, AB-101 + RTX, 72 h, batch 19AB101PN001 was 4.5%, the % of Raji alive, AB-101 + RTX, 72 h, batch 19AB101PN004 was 9.4% and the % of Raji alive, AB-101 + RTX, 72 h, batch 19AB101PN005 was 11.5%. The % of Raji alive, AB-101 + RTX, 72 h, batch 20AB101PG001 was 9.6%, the % of Raji alive, AB-101 + RTX, 72 h, batch 20AB101PG002 was 3.6% and the % of Raji alive, AB-101 + RTX, 72 h, batch 20AB101PN001 was 7.5%. For the same substance, the % of Raji alive, AB-101 + RTX, 72 h, batch 20AB101PN002 was 13.9%, the % of Raji alive, AB-101 + RTX, 72 h, batch 20AB101PN003 was 12.3% and the % of Raji alive, AB-101 + RTX, 72 h, batch 20AB101PN004 was 18.3%. The % of Ramos alive, AB-101 + RTX, 24 h, AVE of 9 batches (raw data table; differs from 47.6 in Table 26) was 47.9%, the % of Ramos alive, AB-101 + RTX, 24 h, batch 19AB101PN001 was 29.5% and the % of Ramos alive, AB-101 + RTX, 24 h, batch 19AB101PN004 was 37.1%. For the same substance, the % of Ramos alive, AB-101 + RTX, 24 h, batch 19AB101PN005 was 59.7%, the % of Ramos alive, AB-101 + RTX, 24 h, batch 20AB101PG001 was 54.1% and the % of Ramos alive, AB-101 + RTX, 24 h, batch 20AB101PG002 was 22.1%. The % of Ramos alive, AB-101 + RTX, 24 h, batch 20AB101PN001 was 46.2%, the % of Ramos alive, AB-101 + RTX, 24 h, batch 20AB101PN003 was 57.7% and the % of Ramos alive, AB-101 + RTX, 24 h, batch 20AB101PN004 was 54.8%. For the same substance, the % of Ramos alive, AB-101 + RTX, 48 h, batch 19AB101PN001 was 12.1%, the % of Ramos alive, AB-101 + RTX, 48 h, batch 19AB101PN004 was 18.6% and the % of Ramos alive, AB-101 + RTX, 48 h, batch 19AB101PN005 was 38.1%. It also gave a % of Ramos alive, AB-101 + RTX, 48 h, batch 20AB101PG001 of 37.4%, a % of Ramos alive, AB-101 + RTX, 48 h, batch 20AB101PG002 of 7.7% and a % of Ramos alive, AB-101 + RTX, 48 h, batch 20AB101PN001 of 22.8%. It also gave a % of Ramos alive, AB-101 + RTX, 48 h, batch 20AB101PN002 of 53%, a % of Ramos alive, AB-101 + RTX, 48 h, batch 20AB101PN003 of 34.4% and a % of Ramos alive, AB-101 + RTX, 48 h, batch 20AB101PN004 of 29.2%. For the same substance, the % of Ramos alive, AB-101 + RTX, 72 h, batch 19AB101PN001 was 6.6%, the % of Ramos alive, AB-101 + RTX, 72 h, batch 19AB101PN004 was 11.4% and the % of Ramos alive, AB-101 + RTX, 72 h, batch 19AB101PN005 was 30.9%. The % of Ramos alive, AB-101 + RTX, 72 h, batch 20AB101PG001 was 23.5%, the % of Ramos alive, AB-101 + RTX, 72 h, batch 20AB101PG002 was 4.1% and the % of Ramos alive, AB-101 + RTX, 72 h, batch 20AB101PN001 was 11%. The % of Ramos alive, AB-101 + RTX, 72 h, batch 20AB101PN002 was 40.3%, the % of Ramos alive, AB-101 + RTX, 72 h, batch 20AB101PN003 was 21.8% and the % of Ramos alive, AB-101 + RTX, 72 h, batch 20AB101PN004 was 21.3%. It also gave a Viable Raji cells (%), AB-101 + RTX, 24 hrs, mean of 9 AB-101 batches (long-term ADCC, IncuCyte) of 23.9%, a Viable Raji cells (%), AB-101 + RTX, 48 hrs, mean of 9 AB-101 batches (long-term ADCC, IncuCyte) of 11.7% and a Viable Raji cells (%), AB-101 + RTX, 72 hrs, mean of 9 AB-101 batches (long-term ADCC, IncuCyte) of 10.1%. The Viable Ramos cells (%), AB-101 + RTX, 24 hrs, mean of 9 AB-101 batches (long-term ADCC, IncuCyte) was 47.6%, the Viable Ramos cells (%), AB-101 + RTX, 48 hrs, mean of 9 AB-101 batches (long-term ADCC, IncuCyte) was 28.1% and the Viable Ramos cells (%), AB-101 + RTX, 72 hrs, mean of 9 AB-101 batches (long-term ADCC, IncuCyte) was 19%. It also gave a lysis of target cells (Raji), AB-101 combined with rituximab, end of the 72 hour co-culture, E:T 1:1 (live-cell analysis, Example 9) of 90% and a lysis of target cells (Ramos), AB-101 combined with rituximab, end of 72 hrs co-culture, E:T 1:1 (live-cell analysis, Example 9) of 80%.
